Laboratory results reported in publication PMC5469796, “Interaction of PKR with single-stranded RNA”.
“And” between values parts separate entries of the source, which are not always exact repeats. Equal values may be shown once.

Assays:
229-kinase [1] = target: 229-kinase (UniProt P19525); experiment: sedimentation velocity AUC; details: AU75: 75 mM HEPES pH 7.5, 75 mM NaCl, 0.1 mM EDTA, 0.1 mM TCEP, 20 °C, 50,000 rpm, 260 nm; errors are confidence intervals (95% joint stated for Table 2) …
242-kinase [2] = target: 242-kinase (UniProt P19525); experiment: sedimentation velocity AUC; details: AU75: 75 mM HEPES pH 7.5, 75 mM NaCl, 0.1 mM EDTA, 0.1 mM TCEP, 20 °C, 50,000 rpm, 260 nm; errors are confidence intervals (95% joint stated for Table 2) …
242-kinase [3] = target: 242-kinase (UniProt P19525 242-551); experiment: sedimentation velocity AUC; 1:1 model; second protein not detected; AU75: 75 mM HEPES pH 7.5, 75 mM NaCl, 0.1 mM EDTA, 0.1 mM TCEP, 20 °C, 50,000 rpm, 260 nm; errors are confidence intervals (95% joint stated for Table 2); crosslinking in AU75 + 10 mM EDTA, 0.5 µM RNA, 1 µM protein, on ice before UV; details: protein: recombinant; tags: TEV-cleaved; single strand
185-kinase = 185-kinase (UniProt P19525 185-551); experiment: sedimentation velocity AUC; Kd1, sequential 2:1; AU75: 75 mM HEPES pH 7.5, 75 mM NaCl, 0.1 mM EDTA, 0.1 mM TCEP, 20 °C, 50,000 rpm, 260 nm; errors are confidence intervals (95% joint stated for Table 2); crosslinking in AU75 + 10 mM EDTA, 0.5 µM RNA, 1 µM protein, on ice before UV; details: protein: recombinant; tags: TEV-cleaved, extra N-terminal Gly; chain copies: 2; single strand
229-kinase [4] = target: 229-kinase (UniProt P19525 229-551); experiment: as above; details: protein: recombinant; tags: TEV-cleaved, extra N-terminal Gly; chain copies: 2; single strand
PKR dsRBD [5] = target: T1, PKR dsRBD (UniProt P19525 1-184); experiment: as above; details: protein: recombinant; chain copies: 2; single strand
PKR full length = PKR full length (UniProt P19525 1-551); experiment: as above; details: protein: recombinant, chain copies: 2
PKR dsRBD [6] = target: T1, PKR dsRBD; experiment: sedimentation velocity AUC; Kd1; footnote b not in material; AU75: 75 mM HEPES pH 7.5, 75 mM NaCl, 0.1 mM EDTA, 0.1 mM TCEP, 20 °C, 50,000 rpm, 260 nm; errors are confidence intervals (95% joint stated for Table 2); crosslinking in AU75 + 10 mM EDTA, 0.5 µM RNA, 1 µM protein, on ice before UV; details: protein: recombinant; chain copies: 2; weak predicted secondary structure
[7] = weak predicted secondary structure

T1 sequence (P19525 1-184): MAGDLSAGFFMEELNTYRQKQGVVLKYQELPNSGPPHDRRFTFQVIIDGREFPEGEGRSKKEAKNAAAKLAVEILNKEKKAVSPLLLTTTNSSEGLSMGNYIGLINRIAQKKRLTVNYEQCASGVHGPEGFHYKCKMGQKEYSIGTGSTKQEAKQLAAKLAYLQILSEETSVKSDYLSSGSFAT
PKR full length, sequence (P19525 whole entry): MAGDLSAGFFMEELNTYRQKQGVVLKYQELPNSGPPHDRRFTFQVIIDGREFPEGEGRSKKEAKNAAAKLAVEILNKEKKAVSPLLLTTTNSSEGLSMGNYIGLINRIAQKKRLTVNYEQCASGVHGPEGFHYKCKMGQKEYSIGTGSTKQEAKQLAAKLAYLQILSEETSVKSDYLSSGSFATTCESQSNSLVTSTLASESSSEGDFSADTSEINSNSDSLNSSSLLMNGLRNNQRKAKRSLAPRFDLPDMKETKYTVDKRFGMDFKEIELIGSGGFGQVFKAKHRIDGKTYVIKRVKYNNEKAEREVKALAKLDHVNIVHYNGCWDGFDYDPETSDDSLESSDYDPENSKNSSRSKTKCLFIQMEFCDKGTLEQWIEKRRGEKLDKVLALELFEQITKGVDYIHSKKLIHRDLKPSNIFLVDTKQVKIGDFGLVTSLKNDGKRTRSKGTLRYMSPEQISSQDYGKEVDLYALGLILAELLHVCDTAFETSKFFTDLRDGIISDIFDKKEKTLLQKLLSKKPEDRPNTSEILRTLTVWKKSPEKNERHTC
229-kinase (UniProt P19525 229-551), sequence (P19525 229-551): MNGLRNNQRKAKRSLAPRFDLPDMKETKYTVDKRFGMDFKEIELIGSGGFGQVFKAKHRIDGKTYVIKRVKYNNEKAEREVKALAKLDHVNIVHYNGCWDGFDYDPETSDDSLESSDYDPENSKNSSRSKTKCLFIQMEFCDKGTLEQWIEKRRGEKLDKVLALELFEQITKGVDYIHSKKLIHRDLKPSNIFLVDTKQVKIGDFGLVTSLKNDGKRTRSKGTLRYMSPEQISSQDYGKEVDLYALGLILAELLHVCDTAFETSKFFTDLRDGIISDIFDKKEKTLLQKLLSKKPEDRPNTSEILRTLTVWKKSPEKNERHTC
229-kinase (UniProt P19525), sequence (P19525 229-551): as above
185-kinase, sequence (P19525 185-551): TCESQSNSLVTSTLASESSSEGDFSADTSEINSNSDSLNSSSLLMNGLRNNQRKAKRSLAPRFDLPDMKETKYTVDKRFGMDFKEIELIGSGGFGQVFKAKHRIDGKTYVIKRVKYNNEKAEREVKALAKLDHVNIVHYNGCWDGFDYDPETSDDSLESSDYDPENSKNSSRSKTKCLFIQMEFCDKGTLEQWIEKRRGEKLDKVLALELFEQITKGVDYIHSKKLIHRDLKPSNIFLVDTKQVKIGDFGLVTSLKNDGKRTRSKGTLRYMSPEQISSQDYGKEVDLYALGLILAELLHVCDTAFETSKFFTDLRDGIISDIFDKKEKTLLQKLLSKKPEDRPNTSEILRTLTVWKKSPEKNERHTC
242-kinase (UniProt P19525), sequence (P19525 242-551): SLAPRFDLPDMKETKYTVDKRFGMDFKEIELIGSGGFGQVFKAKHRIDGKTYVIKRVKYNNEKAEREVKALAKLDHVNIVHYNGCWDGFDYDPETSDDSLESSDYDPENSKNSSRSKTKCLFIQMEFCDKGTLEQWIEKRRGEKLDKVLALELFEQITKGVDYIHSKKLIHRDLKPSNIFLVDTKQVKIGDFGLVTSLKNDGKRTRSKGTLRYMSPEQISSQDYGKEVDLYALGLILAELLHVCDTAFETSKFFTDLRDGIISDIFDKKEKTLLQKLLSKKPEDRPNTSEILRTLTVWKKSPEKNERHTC
242-kinase (UniProt P19525 242-551), sequence (P19525 242-551): as above

## ds30
229-kinase [1]
  Kd: 3.8 µM and 3.27 µM
242-kinase [2]
  Kd: 19.9 µM

B1: U30 (ssRNA)
RNA: UUUUUUUUUUUUUUUUUUUUUUUUUUUUUU
242-kinase [3]
  Kd: 90 µM
185-kinase
  Kd: 31.9 µM
229-kinase [4]
  Kd: 1.91 µM
PKR dsRBD [5]
  Kd: 8.42 µM
PKR full length; single strand
  Kd: 3.51 µM

B2: Het30 (ssRNA)
RNA: GGAGAACUUAAUGCCGGAGACCAAAGACUU
modifications: 5'-OH
PKR full length; [7]
  Kd: 1.07 µM
PKR dsRBD [6]
  Kd: 8.21 µM

B3: dT30 (ssDNA)
DNA: TTTTTTTTTTTTTTTTTTTTTTTTTTTTTT
229-kinase [4]
  Kd: 2.59 µM

B4: ppp-Het30 (ssRNA)
RNA: B2 RNA
modifications: 5'-triphosphate
PKR full length; [7]
  Kd: 0.825 µM
PKR dsRBD [6]
  Kd: 5.36 µM
